The results in this text go back to the DeepSol protein solubility set.

The nature of this data set: soluble on expression in E. coli; label from the status in PepcDB or PDB records.
“MSLAPRFTVTYFVRAADEAEAKARALDIALEQTVEIPRNVVPKGYVEDEILGRLESLLQDPEGRPGFLAAISYSEDDIGGDFLQFLNIVFGNSSIKPGIKVEDIGLSPGLLDLCKGPRHGIVGLRARAGIGEKPLLMSAIKPAGLSTTELARLAYDFALGGMHFVKDDHGLVDQKTAPFEERLKACIEAVGEANAKSGGRTSFVPNITGPATAIIERAKQAQEYGAGGVMIAPALAGYDIVRTLAADPDFSLPIVSHPAFSGANVVSPDCGFTHRAFFGTLHRLMGADAVVYPNFGGRFGFTREECQSIAKTCSVDMGGPKAIVAAPGGGMTFARIPEMREAYGNDIMYLVGGALLSEPDLVSACKRLVAATEEGHHHHHH”: the “soluble on expression in E. coli” value is “soluble”.

Consider “MTMTQQIKAVVYDFGGVLLSYEGVMEKWVAMSRSLGLPDDAVHSESVGIEFSQWLGPDRSLFLGTLTVDDLEGGLFLQYLKHKYGNKLTDNVVIKPFTECLRGENVKIHKNMQKTVEILHKKGFKTAMLTNNMFLDKEHKETRLPCDLTHFDEVVESCLEHLMKPDARFYHLVEKRLGVKPEEIVFLDDLHENIEAAEKLGWNTILVEDIEKAIHELEGFTKVKLI”, for which the “soluble on expression in E. coli” value is “not soluble”.

In the case of “MFSVLLSVYYNESPYYFRQSIDSLFNQSLQLAEVVLVKDGELTPELENVITEYTAKYLQIRVVPLKQNQGLGKALNEGLKHCSYDLVARMDTDDIAKPNRFEKQIRVFQEHPELDVVGAWIDEFEETTSNIISTRKLPEVHDDICQFAKKRNPENHPVIMFRKQAVLAAGGYQHFPLFEDYYLWIRMLQNGAKFYNIQESLLYFRFSSAMFKRRGGLKYVTTELRFQNLLRNLEFITFSEYLYNVFIRVITRMMPNSLRAILYKKALRK”, the “soluble on expression in E. coli” value is reported as “not soluble”.

Take “MSDYLSVSTLTKYLKLKFDKDPYLERVYLTGQVSNFRRRPNHQYFSLKDDKSVIQATMWSGHFKKLGFELEEGMKVNVVGRVQLYEPSGSYSIIVEKAEPDGIGALAIQFEQLKKKLSQAGYFDDRHKQLIPQFVRKIGVVTSPSGAVIRDIITTVSRRFPGVEILLFPTKVQGEGAAQEIAQTIALANEKKDLDLLIVGRGGGSIEDLWAFNEECVVEAIFESRLPVISSVGHETDTTLADFVADRRAATPTAAAELATPVTKIDILSWITERENRMYQSSLRLIRTKEERLQKSKQSVIFRQPERLYDGFLQKLDNLNQQLTYSMRDKLQTVRQKQGLLHQKLQGIDLKQRIHIYQERVVQSRRLLSSTMTSQYDSKLARFEKAQDALISLDSSRIVARGYAIIEKNHTLVSTTNGINEGDHLQVKMQDGLLEVEVKDVRQENI”: the “soluble on expression in E. coli” value was “not soluble”.

With “MTEQERLELEAAAFRRLVAHLDSRKDVQNIDLMNLSGFCRNCLSKWYKAAADEKHIDITLDDAREVVYGMPYSEWKANYQKEASAEQQAAFVKESKHD”, the “soluble on expression in E. coli” value is listed as “soluble”.

With “MKVGQDKVVTIRYTLQVEGEVLDQGELSYLHGHRNLIPGLEEALEGREEGEAFQAHVPAEKAYGPHDPEGVQVVPLSAFPEDAEVVPGAQFYAQDMEGNPMPLTVVAVEGEEVTVDFNHPLAGKDLDFQVEVVKVREATPEELLHGHAHPSGHHHHHH”, the “soluble on expression in E. coli” value is listed as “soluble”.

In the case of “MSLNNIMKVVIIGAGPAGVYSALTLSKHAKVTLIEREEKLGGTCVLYGCIPTKSILSQLIISRQASNMSLNTLREYALTSINTISKSLEHLLNSHGIEVIHANGFLRSSMVHASNTSLAADKVLVSTGTRRERLGKVKFTEDLAYTNEDYNKVVIVGGDAGGIELGWMMKKLGKEVHLIDKNDLLLQNIDRTLSEIVTNFLSQIGIKLYLGKKVSKIDETSVTLEDNQKISGDAVFVTFGRKPNIEGFEEIPHEKYIYVDEYLRTQIPNIYAAGDIIGTFTAHEAIYAGIIAAKNMLGEKREFIVEGIPKVIYIYPQIAYVGTTNGNCVTFNTLNLTRTIVERESEGFLKICERDNRVIGAVAFMPYAEDVISLISVLIRYQISLKDTIDLVMPHPSYLEAITEALNMLQSKGEGHHHHHH”, the “soluble on expression in E. coli” value is on record as “not soluble”.

Regarding “GAMGMESLFPNKGEIIRELLKDPLILKNDSKRSNGSELELDSSDLLQREAILANELNILDNLKTFLNLIKEVKTNLNILELENCYYSLQSLRKKMRNNAAYLKQSFNFQQSISTYVDTLHLELVSTLYKILTNGFWKITENSIQFTPTVEWGKDKVHIEYDTFMDFVAQQYFPKGSLDNQAWFILDMTSADSQEQVRAKLNTIMKEYMNLSRIVSMIKNSIFISGKEISYENEKNILVFSKSSSHGQHCVSTVLTSFEAVCDFMLDGLAFRDRKTLSYELGPLFNTEFTKFVKNNASIILESLDSPLKNLVSVINNKLTRLVAKSEVTNWTHSGKEIQDLLMNKQLYYNLLLDKVLESHISEIRS”, the “soluble on expression in E. coli” value was “soluble”.

“MGSDKIHHHHHHMYKRNERLNLIRKRVDQYGQVAVKDLAIFLQVTPETVRKDLETLENDKLITRTHGGAIQYNHINKEKSYANKWQKQSQVKERIAKKAALQIKSGEIIVIDGGTTTGRIPQYLNDITQTTIVTNSLKIADELNRAIEEQRIQAEVIMLAGKTNTEQDVVRGHMTNELLQRFKFDKAFISCGSFDTSDCYEFDLEEAHASHIMIQKSQLSYLLADSSKRDAHASYRIDGFSEIDYMISDYAKPQNIEYFNQKHWLQI”: the “soluble on expression in E. coli” value is listed as “not soluble”.

With “DGVGGDPAVALPHRRFEYKYSFKGPHLVQSDGTVPFWAHAGNAIPSSDQIRVAPSLKSQRGSVWTKTKAAFENWEVEVTFRVTGRGRIGADGLAIWYAENQGLEGPVFGSADLWNGVGIFFDSFDNDGKKNNPAIVIIGNNGQIHYDHQNDGASQALASCQRDFRNKPYPVRAKITYYQNTLTVMINNGFTPDKNDYEFCAKVENMIIPAQGHFGISAATGGLADDHDVLSFLTFQLTEPGKEPPTPDKEISEKE”, the “soluble on expression in E. coli” value is listed as “soluble”.

Regarding “MTYSGLNLNQDKATKPQTVQIVRQGEATLYWFLLIHYRFRRERRETQSLLMTRNTLKFIPFWSYKHITYAIFLYSRLPENSGQEYLTQRKAEKATKNNLHLSRLVSPTLGVQTIQSFRLPLFVYKINF”, the “soluble on expression in E. coli” value was “not soluble”.

For the sequence “MGSDKIHHHHHHMAVRQDTIWERFLSPVMRLLIDEEGLRRYADSIDWEKEGDRFRRDDVIIPSYYSSQNFHGITGGYLTYNAAVSYDPITQYVVPPNETIVRQALIDAVKVKPRRILDLGCGTGSTTLMLKRAFPEAEVIGLDLSPYMLVRAEDKARNSGLEIVWRHGNAEKTSFRDATFDLVTASLLFHETPNEVSLAILQESFRLLVTGGQVLILDGNQKTLRQLEWLNDVFEEPYIREYAAGSIEANMGAAGFEAVRSQDVWWINQVTGGVKPIATENVRRYTPTSVDNNDLEGLGSPAFGIIA”, the “soluble on expression in E. coli” value is “not soluble”.

For the sequence “MRIAIIGSGCSGLTAIKNLLDAGLKEIICFEKSDQIGGNWVYTAAPSHSSVSEATHIISSKALSQFSDFPMPDDYPDYPSHQQILAYFQAYTRHFHLDHYIRFNTAVLRAEKIEKERWCLHLDDGTQAEFDYLLVANGHHSVPRHPDWKECFTGKYLHAHEYKTNQGLEGKRILVVGAGNSGCDCAVEASRVAARVDISLRSPQYIIPKFIMGRPTDTFAATFHWLPQSVQDGLQRISLRLQIGRYHDYALPEPDFSPTRAHPTINSALFDKIRHGKVHPRPGIQKVSGQTVYFADNATAQYDVLIAATGYKISFPFFDRDFLDWEEAAHIPLFLRIFHPDHPSLFFVGLIQPQGCIWPLAEIQARLIGQLLTNKIQLPLNWRKLALSEGRNRAQQFIARPRHSIEVHYYPYLKQLQRMIQGQIKLEHHHHHH”, the “soluble on expression in E. coli” value is recorded as “soluble”.

Regarding “MIIDINRLDRAFDLIKEGVSKGVFPGAVAAVGTRERVIRLESFGNRCLYPEKLSMNKDTLFDLASLTKVVATNTLFMIFLEKGLISVYDNVSYYLEKFKGKNKDDVTIFNLLTHTAGFVPCKPLYKLCKGYEDSIDYICRCGLSYKPGTKCVYSDFSYILLAYILEKIGGDTLDILCDRYIFKPLYMENTTFKPKGNNIAATEIDKKTKKPLIGVCHDENGRFFGGISGHAGLFSDIYDLCKFSNMLVNEGKGIISYASFKAMTTNHTLGLEDNRGYGWCIKGDKNSFMGDIAFPETFGHNGFTGTSLWVDIKNNIYAILLTNRVHPTRDNLRIIRFRRVFSNAVLASLTR”, the “soluble on expression in E. coli” value is on record as “not soluble”.

Regarding “MNGNGENGTDEKQKLLSVVGVVSEEVVEMNRVSSARFQVSKTDEDEKTSDDNLRKLKSGSEPPPPTQNHEAVTLVTRKMSATGRFMVTSDTNPGQLVAEVADELGIDVPIDPPAEKSPASRAKGVHFSVGDKDSGSMSEDGDEKRNITHENQTTFNMKSWRNMKTIEHPPIIDFYRNSIDTDGVFNRPSMAQLIHGKEHKEQDLGFEELNKKPETAQLAKVIGLNLLSKEDQERRDFERKKRINQQKLQEMHKMHKETYNFR”, the “soluble on expression in E. coli” value was “not soluble”.

Regarding “MPSSPAERYAQALASGQFMPDEAQAQAVQELERVWQELLSRYKASKKAFRRFRRQTSPKGVYMWGGVGRGKTWLMDQFYDSIPFRRKTRMHFHHFMQHVHRELNKLSGQRNPLDLVADQIYKDAVIICFDEFFVSNVTDAMILSDLFQKLFNRGVTLVATSNIAPDGLYKNGIHRDRFLPTIELVQKNCTILNVDAGVDYRLRVLKQAQLFKHPLTDDAKIWMSQRFSAITRSQIVSQQPITINNRVVETLGHTEDVLWCEFSELCLKPRSPADFIEIANIYNTVLVSNVPHLTDYLSEGTRRFIYLVDEFYDRGVKLLLTSQDSIIEIYEGEKLAFEIERTRSRLLEMQSDEYLHSLEHHHHHH”, the “soluble on expression in E. coli” value is given as “soluble”.

On to “MGSDKIHHHHHHMLAERLVSDYDVEVLTTCVRDVATGENIYPEGEEEWNGVVIRRFRTNPVQREKERYFAKKAKPARKLRQFLFKLGILKYLSYLIPVWSYKHDDEVQAMKSDKFYSSALNDYIRDHIDEYKAFIAMSSDYVTFYYTALYAGRKTIAIPTMHNMGISFRSVLTSAFSKIAYVGFNTGEEQRLAENILGKALGAHGILSVGIEESLSADWAMTKEKFQLPEKYLLYIGRITPKKIHRLLTYFVNYKKKYSDSTLRLVLVGGLAMERFEHPDVIYTGFVSDEEKMSILQHADIVVNPSRYESLSLILLEAMSQKRPMLVNGHCKVLKEHCLKSDFASFYYMNNRGFNQALRRIEQSEDLREEMGEKGVFYVKSNYNWTLIMGRLKQAIKSI”, for which the “soluble on expression in E. coli” value was “not soluble”.

Consider “GQRELTLFVHGFNSTQTETAYRAAQLAHDIEMPGSLMVYSWPSKGHALGYAYDADSTVFARDGLETVLRRLGEQRIDRLAVVAHSMGSFLLMEALRQIEIATPGWSARHLDGVILISPDLDLDVFRSQMRRIKTVPQPFVVMASEKDNVLNLSRHLRGKQSSERLGQIGSAALITDLPVAVIDTSQFSDEAESGHFIAATSPTLLAMIAEARNMTDLFEAGNVPL”, for which the “soluble on expression in E. coli” value is listed as “not soluble”.

“MKEDPRIIKTLSKLQKAFVMLLKTYDAGDINVRQISDEAGVTRGAFYSHFSDKKEFVNFTINELVGSLFNSSLKDSVGFVDEVNHKNAHGTNVLSVSNFFDKVAADYQTYTIVLDTEKLPQFTEVLKERLNSEIKTFAEYYGKKVKHDGFPIEVLSSYYVNGLIGMIRMWLDEGMVYTSHYMANAAKKILGTKIQIDSQNIDLSDFFVDLEHHHHHH”: the “soluble on expression in E. coli” value was “soluble”.

Regarding “MATSSAASVDMEDIQTVDLMSELLRRMKCASKPDKRLVFIGPPGSGKGTQSPVIKDEFCLCHLSTGDMLRAAVAAKTPLGVKAKEAMDKGELVSDDLVVGIMDEAMNRPKCQKGFILDGFPRTVTQAEKLDEMLNRRGAQIDKVLNFAIDDSVLEERITGRWIHPSSGRSYHTKFAPPKVPGVDDLTGEPLIQRKDDNADVLRSRLDAFHKQTQPVIDYYAKKENLVNIPAEKAPEEVTKVVKKVVST”, the “soluble on expression in E. coli” value is on record as “soluble”.

As to “AGLKLMGAPVKLTVSQGQPVKLNCSVEGMEEPDIQWVKDGAVVQNLDQLYIPVSEQHWIGFLSLKSVERSDAGRYWCQVEDGGETEISQPVWLTVEGVPFFTVEPKDLAVPPNAPFQLSCEAVGPPEPVTIVWWRGTTKIGGPAPSPSVLNVTGVTQSTMFSCEAHNLKGLASSRTATVHLQ”, the “soluble on expression in E. coli” value is “soluble”.
